The RNAGym collection of RNA variant scans (doi:10.7554/elife.80360)

B1: CPEB3 Ribozyme (parent)
chain: GGGGGCCACAGCAGAAGCGUUCACGUCGCGGCCCCUGUCAGAUUCUGGUGAAUCUGCGAAUUCUGCUGU

Variants of: B1
Assay: self-cleavage, relative activity (ratio to wild type); higher = more cleavage; co-transcriptional

Row | Variant | self-cleavage
1 | GGGGGCUACAGCAGAAGCGUUCACGCCGCGGCCCCUGUCAGAUUCUGGUGAAUCUGCGAAUUCUGCUGU | 1.01
2 | GGGGGCUACAGCAGAAGCGUUCACGUCGCGGCCCCUGUCAGAUUCUGGUGAAUCUGCGAAUUCUGCUAU | 0.971
3 | GGGGGCUACAGCAGAAGCGUUCACGUCGCGGCCCCUGUCAGAUUCUGGUGAAUCUGCGAAUUCUGCUCU | 0.673
4 | GGGGGCUACAGCAAAAGCGUUCACGUCGCGGCCCCUGUCAGAUUCUGGUGAAUCUGCGAAUUCUGCUGU | 0.509
5 | GGGGGCUACAGCAUAAGCGUUCACGUCGCGGCCCCUGUCAGAUUCUGGUGAAUCUGCGAAUUCUGCUGU | 0.503
6 | GGGGGCUACAGCAGAAGCGUUCACGUCGCGGCCCCUGUCAGAUUCUGGUGAAUCUGCGAAUUCUGCUGC | 1.06
7 | GGGGGCUACAGCAGAAGCGUUCACGUCGCGGCCCCUGUCAGAUUCUGGUGAAUCUGCGAAUUCUGCUGG | 1.03
8 | GGGGGCUACAGCAGAAGCGUUCACGUCGCGGCCCCUGUCAGAUUCUGGUGAAUCUGCGAAUUCUGCUGA | 1.02
9 | GGGGGCUACAGCAGAAGCGUUCACGUCGCGGCCCCUUUCAGAUUCUGGUGAAUCUGCGAAUUCUGCUGU | 0.214
10 | GGGGGCUACAGCAGAAGCGUUCACGUCGCGGCCCCUGUCAGAUUCUGGUGAAUCUGCGAAUUCUUCUGU | 0.612
11 | GGGGGCUACAGCAGAAGCGUUCACGUCGCGGCCCCUGUCAGAUUCUGGUGAAUCUGCGAAUUCUCCUGU | 0.604
12 | GGGGGCUACAGCAGAAGCGUUCACGUCGCGGCCCCUGUCAGAUUCUGGUGAAUCUGCGAAUUCUACUGU | 0.781
13 | GGGGGCUACAGCAGAAGCGUUCACGUCGCGUCCCCUGUCAGAUUCUGGUGAAUCUGCGAAUUCUGCUGU | 0.365
14 | GGGGGCUACAGCAGAAGCGUUCACGUCGCGCCCCCUGUCAGAUUCUGGUGAAUCUGCGAAUUCUGCUGU | 0.222
15 | GGGGGCUACAUCAGAAGCGUUCACGUCGCGGCCCCUGUCAGAUUCUGGUGAAUCUGCGAAUUCUGCUGU | 0.715
16 | GGGGGCUACAGCAGAAGCGUUCACGUCGCGGCCCCUGUCAGAUUCUGGUGAAUCAGCGAAUUCUGCUGU | 0.914
17 | GGGGGCCCCAGCAGUAGCGUUCACGUCGCGGCCCCUGUCAGAUUCUGGUGAAUCUGCGAAUUCUGCUGU | 0.873
18 | GGGGGCCCCAGCAGCAGCGUUCACGUCGCGGCCCCUGUCAGAUUCUGGUGAAUCUGCGAAUUCUGCUGU | 0.726
19 | GGGGGCUACAGCAGAAGCGUUCACGUCGCGGCCCCUGUCAGAUUCUGUUGAAUCUGCGAAUUCUGCUGU | 0.966
20 | GGGGGCUACAGCAGAAGCGUUCACGUCGCGGCCCCUGUCAGAUUCUGAUGAAUCUGCGAAUUCUGCUGU | 0.987

Row | Variant | self-cleavage
21 | GGGGGCUACAGCAGAAGCGUUCACGUCGCGGCCCCGGUCAGAUUCUGGUGAAUCUGCGAAUUCUGCUGU | 0.166
22 | GGGGGCUACAGCAGAAGCGUUCACGUCGCGGCCCCAGUCAGAUUCUGGUGAAUCUGCGAAUUCUGCUGU | 0.194
23 | GGGGGCUACAGCAGAAGCGUUCACGUCGCGGCCCCCGUCAGAUUCUGGUGAAUCUGCGAAUUCUGCUGU | 0.806
24 | GGGGGCUACAGCAGAAGCGUACACGUCGCGGCCCCUGUCAGAUUCUGGUGAAUCUGCGAAUUCUGCUGU | 0.967
25 | GGGGGCUACAGCAGAAGCGUGCACGUCGCGGCCCCUGUCAGAUUCUGGUGAAUCUGCGAAUUCUGCUGU | 0.34
26 | GGGGGCCCCAGCAGAAGCGUUCACGUCGCGGCCCCUGUCAGAUUCUGGUGAAUCUGCGAAUUCUGCUGU | 0.999
27 | GGGGGCCCCAGCAGACGCGUUCACGUCGCGGCCCCUGUCAGAUUCUGGUGAAUCUGCGAAUUCUGCUGU | 0.325
28 | GGGGGCUACAGCAGAAGCGUUCACGUCGCGGCCCCUGUCAGAUCCUGGUGAAUCUGCGAAUUCUGCUGU | 0.829
29 | GGGGGCUACAGCAGAAGCGUUCACGUCGCGGCCCCUGUCAGAUUCUGGUGAAUCUGCGAAUUAUGCUGU | 0.577
30 | GGGGGCUACAGCAGAAGCGUUCACGUCGCGGCCCCUGUCAGAUUCUGGUGAAUCUGCGAAUUUUGCUGU | 0.948
31 | GGGGGCUACAGCAGAAGCGUUCACGUCGCGGCCCCUGUCAUAUUCUGGUGAAUCUGCGAAUUCUGCUGU | 0.692
32 | GGGGGCUACAGCAGAAGCGUUCACGUCGCGGCCCCUGUCAAAUUCUGGUGAAUCUGCGAAUUCUGCUGU | 0.748
33 | GGGGGCUACAGCAGAAGCGUUCACGUCGCGGCCCCUGUCAGAUUCUGGCGAAUCUGCGAAUUCUGCUGU | 0.854
34 | GGGGGCUACAGCAGAAGCGUUCACGUCGCGGCCCCUGUCAGAUUCUGGGGAAUCUGCGAAUUCUGCUGU | 0.993
35 | GGGGGCCCCUGCAGAAGCGUUCACGUCGCGGCCCCUGUCAGAUUCUGGUGAAUCUGCGAAUUCUGCUGU | 0.966
36 | GGGGGCCCCCGCAGAAGCGUUCACGUCGCGGCCCCUGUCAGAUUCUGGUGAAUCUGCGAAUUCUGCUGU | 0.975
37 | GGGGGCCCCGGCAGAAGCGUUCACGUCGCGGCCCCUGUCAGAUUCUGGUGAAUCUGCGAAUUCUGCUGU | 0.941
38 | GGGGGCCCCAGCCGAAGCGUUCACGUCGCGGCCCCUGUCAGAUUCUGGUGAAUCUGCGAAUUCUGCUGU | 0.927
39 | GGGGGCUACAGCAGAAGCGUUCACGUCGCGGCCCCUGUCAGAUUCUGGUGAAUCUGCGAAAUCUGCUGU | 0.805
